What was measured:
KaiA [1] = target: KaiA (UniProt Q79PF6); experiment: HS-AFM single-molecule dwell time
KaiA [2] = target: KaiA (UniProt Q79PF6); experiment: HS-AFM single-molecule dwell time; remark: listed apart in the source
[3] = target: the molecule itself; experiment: high-speed atomic force microscopy (HS-AFM); KaiC^WT alone immobilised on bare mica (N-terminal side seen), images compared with an AFM image simulated from the crystal structure
KaiC-AE (mimic of S/pT) [4] = target: T1, KaiC-AE (mimic of S/pT) (S. elongatus, UniProt Q79PF4 1-519, KaiC-AE (S431 to A) | KaiC-AE (T432 to E)); experiment: high-speed atomic force microscopy (HS-AFM); as Fig. 3 but with 1 mM ATP in the observation buffer (Supplementary Fig. 4); KaiC phospho-mimics on AP-mica, KaiA in solution; conditions: both partners purified
T1 construct: KaiC of Synechococcus elongatus with the two phosphorylation sites S431 and T432 changed to A and E; the two substitutions are read from these; source: E. coli BL21 or DH5α, pGEX-based construct, purified (glutathione-agarose, HRV3C cleavage on the column, Q Sepharose); not shown: GST, N-terminal, cleaved
T1 sequence: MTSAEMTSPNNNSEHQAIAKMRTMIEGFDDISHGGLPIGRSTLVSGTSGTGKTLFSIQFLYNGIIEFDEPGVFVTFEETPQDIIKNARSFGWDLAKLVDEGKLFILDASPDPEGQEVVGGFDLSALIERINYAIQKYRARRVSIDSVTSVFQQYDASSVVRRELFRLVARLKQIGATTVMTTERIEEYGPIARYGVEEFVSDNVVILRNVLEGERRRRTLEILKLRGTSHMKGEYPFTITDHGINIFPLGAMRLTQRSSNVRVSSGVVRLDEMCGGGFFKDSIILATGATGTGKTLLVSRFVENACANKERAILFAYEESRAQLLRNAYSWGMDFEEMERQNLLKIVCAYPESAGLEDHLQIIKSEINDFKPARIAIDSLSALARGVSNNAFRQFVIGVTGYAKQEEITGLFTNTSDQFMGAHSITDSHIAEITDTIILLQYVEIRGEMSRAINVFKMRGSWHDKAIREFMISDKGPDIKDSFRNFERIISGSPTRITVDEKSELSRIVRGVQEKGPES

KaiC-AA (mimic of S/T) = target: T2, KaiC-AA (mimic of S/T) (S. elongatus, UniProt Q79PF4 1-519, KaiC-AA (S431 to A) | KaiC-AA (T432 to A)); experiment: as above; conditions: both partners purified
T2 construct: KaiC of Synechococcus elongatus with the two phosphorylation sites S431 and T432 changed to A and A; the two substitutions are read from these; source: E. coli BL21 or DH5α, pGEX-based construct, purified (glutathione-agarose, HRV3C cleavage on the column, Q Sepharose); not shown: GST, N-terminal, cleaved
T2 sequence: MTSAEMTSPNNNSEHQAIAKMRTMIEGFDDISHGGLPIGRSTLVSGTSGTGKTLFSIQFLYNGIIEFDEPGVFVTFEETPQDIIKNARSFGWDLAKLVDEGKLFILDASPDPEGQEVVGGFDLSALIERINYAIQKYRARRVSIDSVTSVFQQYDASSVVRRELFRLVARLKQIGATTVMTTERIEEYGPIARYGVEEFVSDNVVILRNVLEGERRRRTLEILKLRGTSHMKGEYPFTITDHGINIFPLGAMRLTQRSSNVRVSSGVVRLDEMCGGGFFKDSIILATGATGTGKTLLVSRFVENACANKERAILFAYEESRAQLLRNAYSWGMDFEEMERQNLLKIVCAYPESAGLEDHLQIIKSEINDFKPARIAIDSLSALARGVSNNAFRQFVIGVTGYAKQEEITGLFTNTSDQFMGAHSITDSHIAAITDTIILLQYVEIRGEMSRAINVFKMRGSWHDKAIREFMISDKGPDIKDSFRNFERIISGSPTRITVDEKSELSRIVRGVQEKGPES

KaiC-DE (mimic of pS/pT) [5] = target: T3, KaiC-DE (mimic of pS/pT) (S. elongatus, UniProt Q79PF4 1-519, KaiC-DE (S431 to D) | KaiC-DE (T432 to E)); experiment: as above; conditions: both partners purified
T3 construct: KaiC of Synechococcus elongatus with the two phosphorylation sites S431 and T432 changed to D and E; the two substitutions are read from these; source: E. coli BL21 or DH5α, pGEX-based construct, purified (glutathione-agarose, HRV3C cleavage on the column, Q Sepharose); not shown: GST, N-terminal, cleaved
T3 sequence: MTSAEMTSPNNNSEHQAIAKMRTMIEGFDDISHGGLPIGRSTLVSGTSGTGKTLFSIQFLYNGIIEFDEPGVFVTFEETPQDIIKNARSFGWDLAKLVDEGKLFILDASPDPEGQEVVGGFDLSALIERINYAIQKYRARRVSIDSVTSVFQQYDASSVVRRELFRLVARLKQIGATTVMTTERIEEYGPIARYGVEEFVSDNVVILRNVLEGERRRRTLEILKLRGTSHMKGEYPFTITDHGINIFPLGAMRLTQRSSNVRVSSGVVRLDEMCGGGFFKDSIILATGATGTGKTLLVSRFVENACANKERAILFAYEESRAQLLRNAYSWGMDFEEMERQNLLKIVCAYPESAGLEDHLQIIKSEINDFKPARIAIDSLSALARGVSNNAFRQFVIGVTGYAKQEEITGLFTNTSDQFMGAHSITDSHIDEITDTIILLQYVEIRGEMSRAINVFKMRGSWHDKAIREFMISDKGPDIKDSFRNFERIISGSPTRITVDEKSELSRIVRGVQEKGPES

KaiC-DA (mimic of pS/T) = target: T4, KaiC-DA (mimic of pS/T) (S. elongatus, UniProt Q79PF4 1-519, KaiC-DA (S431 to D) | KaiC-DA (T432 to A)); experiment: high-speed atomic force microscopy (HS-AFM); KaiC phospho-mimics on AP-mica (CII end up), 1 μM KaiA in solution, no ATP; dwell time of the KaiA-bound state from images at 10 fps, fitted to a first order model; 20 mM Tris-HCl pH 8.0, 5 mM MgCl2, 25-28 °C; conditions: both partners purified
T4 construct: KaiC of Synechococcus elongatus with the two phosphorylation sites S431 and T432 changed to D and A; the two substitutions are read from these; source: E. coli BL21 or DH5α, pGEX-based construct, purified (glutathione-agarose, HRV3C cleavage on the column, Q Sepharose); not shown: GST, N-terminal, cleaved
T4 sequence: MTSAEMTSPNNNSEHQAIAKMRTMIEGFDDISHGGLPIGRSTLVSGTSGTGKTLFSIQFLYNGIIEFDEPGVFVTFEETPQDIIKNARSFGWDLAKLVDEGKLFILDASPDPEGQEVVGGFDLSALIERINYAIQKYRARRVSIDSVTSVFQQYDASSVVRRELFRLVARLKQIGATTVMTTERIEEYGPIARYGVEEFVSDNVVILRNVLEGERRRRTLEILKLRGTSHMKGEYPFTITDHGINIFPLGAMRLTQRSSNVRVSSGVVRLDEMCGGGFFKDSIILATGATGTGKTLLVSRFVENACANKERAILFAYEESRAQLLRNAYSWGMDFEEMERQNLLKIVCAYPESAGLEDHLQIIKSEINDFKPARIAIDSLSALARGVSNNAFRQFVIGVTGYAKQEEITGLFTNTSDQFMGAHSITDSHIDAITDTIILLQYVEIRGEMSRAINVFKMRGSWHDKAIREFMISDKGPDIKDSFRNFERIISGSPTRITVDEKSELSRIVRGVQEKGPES

KaiC-AE (mimic of S/pT) [6] = target: T1, KaiC-AE (mimic of S/pT); experiment: as above; conditions: both partners purified
KaiC-DE (mimic of pS/pT) [7] = target: T3, KaiC-DE (mimic of pS/pT); experiment: as above; conditions: both partners purified
[8] = reference: KaiC-AA (S431A/T432A), sites T432
[9] = reference: KaiC-AA (S431A/T432A), sites S431
[10] = reference: KaiC-AA (S431A/T432A), sites S431,T432
[11] = reference: KaiC-AE (S431A/T432E), sites S431

## KaiC (from UniProt Q79PF4) KaiC-AE (S431A/T432E)
KaiA [1]; [8]
  other: bound-state lifetime τbound: 1 s
KaiA [2]; [8]
  other: bound-state lifetime τbound: 0.95 s

## KaiC (from UniProt Q79PF4) KaiC-DA (S431D/T432A)
KaiA [1]; [9]
  other: bound-state lifetime τbound: 0.43 s
KaiA [2]; [9]
  other: bound-state lifetime τbound: 0.43 s

## KaiC (from UniProt Q79PF4) KaiC-DE (S431D/T432E)
KaiA [1]; [10]
  other: bound-state lifetime τbound: 0.26 s
KaiA [1]; [11]
  other: bound-state lifetime τbound: weaker; reference 1.00 ± 0.15
KaiA [2]; [10]
  other: bound-state lifetime τbound: 0.31 s
KaiA [2]; [11]
  other: bound-state lifetime τbound: weaker; reference 0.95 ± 0.04
KaiA [2]; reference: KaiC-DA (S431D/T432A), sites T432
  other: bound-state lifetime τbound: weaker; reference 0.43 ± 0.01

## KaiC (from UniProt Q79PF4) KaiCWT from peak phosphorylation phase (24 h)
KaiA [1]; reference: KaiCWT from trough phosphorylation phase (15 h), sites S431,T432
  other: bound-state lifetime τbound: weaker; reference 0.77 ± 0.05

## KaiC (from UniProt Q79PF4) hyperphosphorylated KaiCWT (~81% phosphorylated)
KaiA [1]; reference: hypo-phosphorylated KaiCWT (~27% phosphorylated), sites S431,T432
  other: bound-state lifetime τbound: weaker; reference 1.12 ± 0.03

B1: native wild-type KaiC hexamer (KaiC^WT) (natural protein, S. elongatus)
chain: MTSAEMTSPNNNSEHQAIAKMRTMIEGFDDISHGGLPIGRSTLVSGTSGTGKTLFSIQFLYNGIIEFDEPGVFVTFEETPQDIIKNARSFGWDLAKLVDEGKLFILDASPDPEGQEVVGGFDLSALIERINYAIQKYRARRVSIDSVTSVFQQYDASSVVRRELFRLVARLKQIGATTVMTTERIEEYGPIARYGVEEFVSDNVVILRNVLEGERRRRTLEILKLRGTSHMKGEYPFTITDHGINIFPLGAMRLTQRSSNVRVSSGVVRLDEMCGGGFFKDSIILATGATGTGKTLLVSRFVENACANKERAILFAYEESRAQLLRNAYSWGMDFEEMERQNLLKIVCAYPESAGLEDHLQIIKSEINDFKPARIAIDSLSALARGVSNNAFRQFVIGVTGYAKQEEITGLFTNTSDQFMGAHSITDSHISTITDTIILLQYVEIRGEMSRAINVFKMRGSWHDKAIREFMISDKGPDIKDSFRNFERIISGSPTRITVDEKSELSRIVRGVQEKGPES
notes: circadian clock protein KaiC of Synechococcus elongatus, native (unmutated); also called native KaiC; C6; source: E. coli BL21 or DH5α, pGEX-based construct, purified (glutathione-agarose, HRV3C cleavage on the column, Q Sepharose; 5 mM MgCl2 and 1 mM ATP throughout); not shown: GST, N-terminal, cleaved
[3]
  stoichiometry N: 6

B2: KaiA (natural protein, S. elongatus, UniProt Q79PF6 1-284, looked up)
chain: MLSQIAICIWVESTAILQDCQRALSADRYQLQVCESGEMLLEYAQTHRDQIDCLILVAANPSFRAVVQQLCFEGVVVPAIVVGDRDSEDPDEPAKEQLYHSAELHLGIHQLEQLPYQVDAALAEFLRLAPVETMADHIMLMGANHDPELSSQQRDLAQRLQERLGYLGVYYKRDPDRFLRNLPAYESQKLHQAMQTSYREIVLSYFSPNSNLNQSIDNFVNMAFFADVPVTKVVEIHMELMDEFAKKLRVEGRSEDILLDYRLTLIDVIAHLCEMYRRSIPRET
notes: circadian clock protein KaiA of Synechococcus elongatus, native (unmutated); also called native KaiA; KaiA dimer; source: E. coli BL21 or DH5α, pGEX-based construct, purified (glutathione-agarose, HRV3C cleavage on the column, Q Sepharose); not shown: GST, N-terminal, cleaved
KaiC-AE (mimic of S/pT) [4]
  τ_(bound) (dwell time of the bound state): 0.95 s
KaiC-AA (mimic of S/T)
  binding result: binds
KaiC-DE (mimic of pS/pT) [5]
  τ_(bound) (dwell time of the bound state): 0.31 s
KaiC-DA (mimic of pS/T)
  τ_(bound) (dwell time of the bound state): 0.43 s
KaiC-AE (mimic of S/pT) [6]
  τ_(bound) (dwell time of the bound state): 1 s
KaiC-DE (mimic of pS/pT) [7]
  τ_(bound) (dwell time of the bound state): 0.26 s

From PMC6092398, “Revealing circadian mechanisms of integration and resilience by visualizing clock proteins working in real time” (Nature Communications, 2018)
